B1: 单抗16L9 (antibody, V domains shown)
VH: EVQLVESGGGLIQPGGSLRLSCAASGFTVSSNYMSWVRQAPGKGLEWVSVIYSGGSTYYADSVKGRFTISRDNSENTLYLQMNSLRAEDTAVYYCARGEIQPYYYYGMDVWGQGTTVTVSS
VL: QSVLTQPPSASGSPGQSVTISCTGTSSDFGGYNSVSWYQQHPGKAPKLMIYEVSKRPSGVPDRFSGSKSGNTASLTVSGLQAEDEADYYCSSYAGSNNFDVFGTGTKVTVL
B2: 单抗10C2 (antibody, V domains shown)
VH: EVQLVESGGGLIQPGGSLRLSCAASGLTVSSNYMNWVRQAPGKGLEWVSVIYSGGSTYYADSVKGRFTISRDNSKNTLYLQMNSLRAEDTAVYYCARLLVATIRDFDYWGQGTLVTVSS
VL: not shown
B3: 单抗22H22 (antibody, V domains shown)
VH: EVQLVESGGALIQPGGSLRLSCAASGLTVSSNYMTWVRQAPGKGLEWVSVIYSGGSTYYADSVKGRFTISRDNSKNTLYLQMNSLRAEDTAVYYCARGYGDYENYFDYWGQGTLVTVSS
VL: AIQLTQSPSSLSASVGDRVTITCRASQGISSYLAWYQQKPGKAPKLLIYAASTLQGGVPSRFSGSGSGTDFTLTISSLQPEDFATYYCQHLWTFGQGTKVEIK
B4: 单抗3D13 (antibody, V domains shown)
VH: EVQLVESGGGLIQPGGSLRLSCAASGLTVSSNYMSWVRQAPGKGLEWVSVIYSGGSAFYADSVKGRFTISRDNSKNTLYLQMNSLRAEDTAVYYCARDLSSAGGMDVWGQGTTVTVSS
VL: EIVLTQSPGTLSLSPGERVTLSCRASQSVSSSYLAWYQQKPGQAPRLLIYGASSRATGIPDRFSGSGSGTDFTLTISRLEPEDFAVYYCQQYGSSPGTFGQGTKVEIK
B5: 单抗20E21 (antibody, V domains shown)
VH: EVQLVESGGGLFQPGGSLRLSCAASGLTVSSNYMSWVRQAPGKGLECVSVIYSGGSTYYADSVKGRFTISRDNSKNTLYLQMNSLRAEDTAVYYCARDRGMLHGMDVWGQGTTVTVSS
VL: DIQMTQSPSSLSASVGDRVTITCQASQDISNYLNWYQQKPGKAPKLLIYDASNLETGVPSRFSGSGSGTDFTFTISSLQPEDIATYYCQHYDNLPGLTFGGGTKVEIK
B6: 单抗4L12 (antibody, V domains shown)
VH: EVQLVESGGGLVQPGGSLRLSCAASGITVSSNYMNWVRQAPGRGLEWVSLLYSGGSTYYADSVKGRFTISRDNSKNTLYLQMNSLRAEDTAVYYCARDLITYGMDVWGQGTTVTVSS
VL: AIQLTQSPSSLSASVGDRVTITCRASQGISSYLAWYQQKPGKAPKLLIYAASTLQSGVPSRFSGSGSGTDFTLTISSLQPEDFATYYCQQLNSYPPLTFGGGTKVEIK
B7: 单抗12F5 (antibody, V domains shown)
VH: EVQLVESGGGLIQPGGSLRLSCAASGFTVSSNYMSWVRQAPGKGLEWVSVIYSGGSTFYADSVKGRFTISRDNSKNTLYLQMNSLRAEDTAVYYCARDLIDYGMDVWGQGTTVTVSS
VL: DIQLTQSPSFLSASVGDRVTITCRASQGISSYLAWYQQKPGKAPKLLIYAASTLQSGVPSRFSGSGSGTEFTLTISSLQPEDFATYYCQQLNSYPPYTFGQGTKLEIK

What follows are binders tested against SARS-CoV-2病毒的S1蛋白的RBD (SARS-CoV-2, UniProt P0DTC2 319-541) (assay: BLI (OctetRED96), antibody captured on AHC probe, RBD in solution from 100 nM in 3-fold dilutions, 1:1 global fit).
B1 was tested, and the Kd was 1.21 nM. B2 was tested, and the Kd was 3.36 nM. B3 showed a Kd of 5.07 nM. In the case of B4, the Kd is reported as 4.17 nM. Work on B5 yielded a Kd of 2.3 nM. B6 showed a Kd of 1.49 nM. Work on B7 yielded a Kd of 2.22 nM.

From patent publication CN112159469A (SHANGHAI PUBLIC HEALTH CLINICAL CT, dated 2021)
